Legend:
Experiment in all cases: SPR (BIACORE), antibody captured, FcgR analyte
[1] = molecular target: T1, cynomolgus monkey FcγRIIa1 extracellular domain with C-terminal His-tag (cynomolgus monkey)
T1 construct: also called cyno FcgRIIa1; cynoFcγRIIa1
T1 chain: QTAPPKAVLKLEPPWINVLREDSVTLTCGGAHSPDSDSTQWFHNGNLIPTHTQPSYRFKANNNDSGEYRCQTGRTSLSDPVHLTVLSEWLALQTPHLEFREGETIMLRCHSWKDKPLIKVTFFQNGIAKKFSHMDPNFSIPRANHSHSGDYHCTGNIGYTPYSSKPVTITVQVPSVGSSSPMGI
Method: (§1) The kinetic analysis of interactions between these antibodies and FcγR was carried out using BIACORE® T200 or BIACORE® 4000 (GE Healthcare). HBS-EP+ (GE Healthcare) was used as the running buffer, and the measurement temperature was set to 25° C. A chip produced by immobilizing Protein A. Protein A/G or mouse anti-human IgG kappa light chain (BD Biosciences) onto a Series S Sensor Chip CM4 or CM5 (GE Healthcare) by the amine-coupling method was used. […] After the measurement, the antibody captured on the chip was washed off by allowing reaction with 10 mM glycine-HCl, pH1.5 and 25 mM NaOH so that the chip was regenerated and used repeatedly. The sensorgrams obtained as measurement results were analyzed by the 1:1 Langmuir binding model using the BIACORE® Evaluation Software to calculate the binding rate constant ka (L/mol/s) and dissociation rate constant kd (l/s), and the dissociation constant KD (mol/L) was calculated from these values. […] Regarding such interactions, KD values were calculated using the following 1:1 binding model described in BIACORE® T100 Software Handbook BR1006-48 Edition AE.
(§2) The behavior of interacting molecules according to the 1:1 binding model on BIACORE® can be described by Equation 1: Req=C·R max/(KD+C)+RI, wherein, Req is a plot of steady-state binding levels to analyte concentration. C is concentration, RI is bulk refractive index contribution in the sample, and Rmax is analyte binding capacity of the surface. When this equation is rearranged, KD can be expressed as Equation 2: KD=C·Rmax/(Req−RI)−C. KD can be calculated by substituting the values of Rmax, RI, and C into Equation 1 or Equation 2. From the current measurement conditions, RI=0, C=2 μmol/L can be used.

[2] = molecular target: T2, cynomolgus monkey FcγRIIa2 extracellular domain with C-terminal His-tag (cynomolgus monkey)
T2 construct: also called cyno FcgRIIa2; cynoFcγRIIa2
T2 chain: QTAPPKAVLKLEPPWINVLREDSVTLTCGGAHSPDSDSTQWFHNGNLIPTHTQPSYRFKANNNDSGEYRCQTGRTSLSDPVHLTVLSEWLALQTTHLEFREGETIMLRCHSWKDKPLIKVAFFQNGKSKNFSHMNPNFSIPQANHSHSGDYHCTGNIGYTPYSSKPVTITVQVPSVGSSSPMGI
Method: as §1, §2

[3] = molecular target: T3, cynomolgus monkey FcγRIIa3 extracellular domain with C-terminal His-tag (cynomolgus monkey)
T3 construct: also called cyno FcgRIIa3; cynoFcγRIIa3
T3 chain: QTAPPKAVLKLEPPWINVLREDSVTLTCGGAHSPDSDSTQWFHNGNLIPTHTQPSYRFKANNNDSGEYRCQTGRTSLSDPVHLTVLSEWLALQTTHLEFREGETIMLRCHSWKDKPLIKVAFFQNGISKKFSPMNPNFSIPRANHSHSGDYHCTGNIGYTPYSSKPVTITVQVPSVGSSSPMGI
Method: as §1, §2

[4] = molecular target: T4, cynomolgus monkey FcγRIIb extracellular domain with C-terminal His-tag (cynomolgus monkey)
T4 construct: also called cyno FcgRIIb; cynoFcγRIIb
T4 chain: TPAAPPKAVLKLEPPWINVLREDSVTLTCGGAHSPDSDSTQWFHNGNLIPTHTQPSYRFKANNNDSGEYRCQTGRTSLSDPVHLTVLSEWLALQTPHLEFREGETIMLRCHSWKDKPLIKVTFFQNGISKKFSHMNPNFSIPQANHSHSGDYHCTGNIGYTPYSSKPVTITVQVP
Method: as §1, §2

[5] = molecular target: T5, cynomolgus monkey FcγRIIIaS extracellular domain with C-terminal His-tag (cynomolgus monkey, UniProt Q8SPW2 21-206 at identity 1.00))
T5 construct: also called cyno FcgRIIIaS; cynoFcγRIIIaS
T5 chain: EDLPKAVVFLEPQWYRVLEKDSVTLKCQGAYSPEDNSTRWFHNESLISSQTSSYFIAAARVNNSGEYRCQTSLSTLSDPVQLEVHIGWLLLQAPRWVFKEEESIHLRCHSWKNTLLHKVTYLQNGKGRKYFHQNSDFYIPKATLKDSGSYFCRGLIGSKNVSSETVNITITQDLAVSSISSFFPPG
Method: as §1, §2

[6] = molecular target: T6, human FcγRIIaH extracellular domain with C-terminal His-tag (human, UniProt P12318 34-217)
T6 construct: also called human FcgRIIaH; FcγRIIa (type H)
T6 sequence: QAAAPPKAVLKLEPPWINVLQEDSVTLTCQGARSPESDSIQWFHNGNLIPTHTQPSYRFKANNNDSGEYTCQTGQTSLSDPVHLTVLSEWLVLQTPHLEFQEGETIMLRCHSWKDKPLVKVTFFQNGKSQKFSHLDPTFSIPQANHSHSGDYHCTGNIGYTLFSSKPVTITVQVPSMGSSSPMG
Method: as §1, §2

[7] = molecular target: T7, human FcγRIIaR extracellular domain with C-terminal His-tag (human, UniProt P12318 34-217)
T7 construct: also called human FcgRIIaR; FcγRIIa (type R)
T7 chain: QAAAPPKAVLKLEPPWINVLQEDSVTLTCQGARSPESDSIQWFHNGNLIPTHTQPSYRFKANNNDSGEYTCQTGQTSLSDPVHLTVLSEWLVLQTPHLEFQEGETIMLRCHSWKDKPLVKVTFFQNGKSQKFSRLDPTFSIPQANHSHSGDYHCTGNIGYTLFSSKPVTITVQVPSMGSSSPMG
Method: as §1, §2

[8] = molecular target: T8, human FcγRIIb extracellular domain with C-terminal His-tag (human, UniProt P31994 43-217)
T8 construct: also called human FcgRIIb
T8 sequence: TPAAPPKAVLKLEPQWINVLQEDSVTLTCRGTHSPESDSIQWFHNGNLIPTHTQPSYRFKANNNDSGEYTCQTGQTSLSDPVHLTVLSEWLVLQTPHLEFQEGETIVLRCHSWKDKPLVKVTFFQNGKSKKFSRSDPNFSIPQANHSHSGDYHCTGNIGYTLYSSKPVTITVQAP
Method: as §1, §2

[9] = molecular target: T9, human FcγRIIIaV extracellular domain with C-terminal His-tag (human, UniProt P08637 17-208)
T9 construct: also called human FcgRIIIaV
Method: as §1, §2

T9 sequence (P08637 17-208 F176V): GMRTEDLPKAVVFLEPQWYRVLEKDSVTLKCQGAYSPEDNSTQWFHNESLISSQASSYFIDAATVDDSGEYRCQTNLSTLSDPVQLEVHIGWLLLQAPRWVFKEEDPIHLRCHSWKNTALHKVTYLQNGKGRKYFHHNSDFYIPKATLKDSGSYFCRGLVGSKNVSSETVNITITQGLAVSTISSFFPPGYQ

Kd [1]: 800 nM
Kd [2]: 730 nM
Kd [3]: 1200 nM
Kd [4]: 250 nM
Kd [5]: 1100 nM
Kd [6]: 210 nM
Kd [7]: 200 nM
Kd [8]: 950 nM
Kd [9]: 1800 nM
B1: M103205H795-MY533/M103202L889-SK1 (antibody, human IgG1, kappa)
heavy: QVTLKESGPVLVKPTETLTLTCTVSGIDLSHDDISWVRQAPGKGLEWVGIISYAGSTYYASWAKGRLTISKDTSKNQVVLTMTNMDPVDTATYYCARGVPAYSHGGDLWGQGTLVTVSSASTKGPSVFPLAPSSKSTSGGTAALGCLVKDYFPEPVTVSWNSGALTSGVHTFPAVLQSSGLYSLSSVVTVPSSSLGTQTYICNVNHKPSNTKVDKKVEPKSCDKTHTCPPCPAPEWLTGPVVFLFPPKPKDTLMISRTPEVTCVVVDVSDEDPEVKFNWYVDGVEVHNAKTKPREELYNSTYRVVSVLTVLHQDWLNGKEYKCKVSNKALPKPIEKTISKAKGQPREPQVYTLPPSREEMTKNQVSLTCLVKGFYPSDIAVEWESNGQPENNYKTTPPVLDSDGSFFLYSKLTVDKSRWQQGNVFSCSVMHEALHNHYTQKSLSLSP
light: DIVMTQSPATLSLSPGERATLSCTSSQSVYHANWLSWFQQKPGQPPKLLIYWASTLAYGVPSRFSGSGSGTDFTLTISSLQPEDAATYYCAGGYGGGRYAFGQGTKVEIKRTVAAPSVFIFPPSDEQLKSGTASVVCLLNNFYPREAKVQWKVDNALQSGNSQESVTEQDSKDSTYSLSSTLTLSKADYEKHKVYACEVTHQGLSSPVTKSFNRGEC
notes: Substitutions introduced into M103205H795-SG1, expressed with M103202L889-SK1 as light chain; EU numbering
